Laboratory results as given in patent publication US5948668.

Key:
[1] = biological target: recombinant rat procarboxypeptidase B expressed by plasmid pλProCPB (rat)
[2] = biological target: recombinant rat procarboxypeptidase B with the Cys290->Ser mutation, expressed by plasmid pProCPB-C (rat)

Specific Activity (u/mg) of CPB (Hippuryl-L-Arg substrate) after folding of ProCPB and trypsin treatment [1]: 42.9 u/mg | Specific Activity (u/mg) of CPB-C (Hippuryl-L-Arg substrate) after folding of ProCPB-C and trypsin treatment [2]: 20.9 u/mg
Substance: trypsin (enzyme)
